Experimental data: patent US20260217835A1

Molecular target: GCH065-G1T6v2/L0011-kT0
Assay: CIEX peak area ratio; coexpression from mRNAs (heavy 1/light/heavy 2 = 1/4/1) in Expi293 cells

GCH065-G1T6v2/L0011-kT0, sequence (heavy, as listed by the source): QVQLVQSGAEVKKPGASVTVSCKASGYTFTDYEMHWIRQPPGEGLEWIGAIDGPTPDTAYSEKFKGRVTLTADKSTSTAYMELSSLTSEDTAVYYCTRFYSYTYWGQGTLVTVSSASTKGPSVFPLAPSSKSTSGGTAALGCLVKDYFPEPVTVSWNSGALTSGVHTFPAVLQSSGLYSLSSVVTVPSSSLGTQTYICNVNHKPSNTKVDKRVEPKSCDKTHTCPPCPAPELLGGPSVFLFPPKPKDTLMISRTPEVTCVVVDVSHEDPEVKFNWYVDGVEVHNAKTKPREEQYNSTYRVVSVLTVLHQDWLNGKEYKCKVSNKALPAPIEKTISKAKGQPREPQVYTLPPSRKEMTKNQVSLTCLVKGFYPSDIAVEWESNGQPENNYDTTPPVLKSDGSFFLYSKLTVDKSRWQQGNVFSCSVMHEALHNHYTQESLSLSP

B1: TR01H113-G1T6/L0011-kT0 (antibody, human IgG1, kappa, V domains shown)
VH: QVQLVESGGGVVQPGGSLRLSCAASGFTFSNAWMHWVRQAPGKGLEWVAQIKDKSQNYATYVAESVKGRFTISRADSKNSIYLQMNSLKTEDTAVYYCRYVHYAAGYGVDIWGQGTTVTVSS
VL: DIVMTQSPLSLPVTPGEPASISCRSSQPLVHSNRNTYLHWYQQKPGQAPRLLIYKVSNRFSGVPDRFSGSGSGTDFTLKISRVEAEDVGVYYCGQGTQVPYTFGQGTKLEIKR
Heavy chain heteromultimer (TG, T1G2, QJ, Q3J4) (%): 2.07%
